{
  "source": "patent US9217011B2",
  "about": "“Non-natural proteinaceous scaffold made of three non-covalently associated peptides” (Complix NV, priority 2007, dated 2015)",
  "assay_type": "physicochemical",
  "conditions": "for alpha-helical secondary structure from CD spectrum: 292 microM, pH 7.2; for reversibility of thermal unfolding (up and down scan): CD signal as a function of temperature, about 1 degree Celsius per minute",
  "protocol": "The said synthesized peptide was dissolved at a concentration of 292 microM in 20 mM phosphate buffer (PBS), 150 mM NaCl, pH 7.2. The CD spectra were measured between […], at 5 and 90 degrees Celsius (FIG. 3).\nTo analyse whether the temperature-induced transition between helical and nonhelical states was reversible, a forward (up) and backward (down) thermal scan was performed on the same sample, by recording the CD signal at […] as a function of temperature at a scanning rate of about 1 degree Celsius per minute (FIG. 4).\nIt was further analyzed whether the thermal unfolding curve of FIG. 4 conformed to the thermodynamic equations describing the equilibrium folding/unfolding reaction between three molecules free (monomeric) peptide and one entity of folded (trimeric) complex. This reaction is generally written as 3 peptide <=> peptide3\n[formula] [formula] [formula] and • T≡the temperature, in degrees Kelvin, of the sample • θ(T)≡the CD-signal [theta]222 nm, in deg cm^2 dmol^−1, as a function of T • θM(T)≡the CD-signal for 100% free (monomeric) peptide as a function of T • θT(T)≡the CD-signal for 100% associated (trimeric) peptide as a function of T • Tt≡the transition temperature, where 50% of the total peptide concentration is associated • ΔHt≡the enthalpy difference, in kJ per mole peptide, between mono- and trimeric states • ΔCp≡the heat capacity difference, in J mol^−1 K^−1, between mono- and trimeric states • R≡the ideal (universal) gas constant≡8.31 J mol^−1 K^−1\nFIG. 5 represents fitting of a theoretic equation for trimeric association to experimental data. The experimental data are taken from FIG. 4, curve labeled “UP”. The theoretic equations used are listed supra. The fitted parameters (fitting results) are listed at the right in FIG. 5. “Transit. T” corresponds to Tt, but is expressed here in degrees Celsius. The parameter “delta Cp” was kept constant at 3.0 kJ mol^−1 K^−1. The parameters “thetaM(T)” and “thetaT(T)” were treated as linear functions of T, resulting in the white straight lines described by the respective offsets and slopes indicated at the right in the figure. “RMS Resid.” refers to the root-mean-square of the differences between experimental and theoretic data points. The fitted (theoretic) curve itself is plotted in white on the figure and coincides over the entire temperature range with the experimental data points shown in black.",
  "note": "Like-named read-outs stand apart in the source and are kept apart here.",
  "data": [
    {"substance": "Ac-MSIEEIQKQQAAIQKQIAAIQKQIYRMTP-NH2 [Q2a]", "values": [
      {"measurement": "thermal stability (in words)", "result": "moderately stable"},
      {"measurement": "alpha-helical secondary structure from CD spectrum", "setting": "5 degrees Celsius", "result": "high alpha-helical secondary structure content"},
      {"measurement": "alpha-helical secondary structure from CD spectrum", "setting": "90 degrees Celsius", "result": "greatly, but not completely, lost"},
      {"measurement": "reversibility of thermal unfolding (up and down scan)", "result": "up and down scans almost perfectly coincided"}
    ]},
    {"substance": "Ac-MSIEEIQKQIAAIQKQIAAIQKQIYRMTP-NH2 [Q2aI]", "values": [
      {"measurement": "thermal stability (in words)", "result": "extremely thermostable"},
      {"measurement": "reversibility of thermal unfolding (up and down scan)", "result": "full reversibility"},
      {"measurement": "temperature up to which the peptide did not quantitatively unfold", "setting": "thermal CD scan", "result": "≥ 95", "unit": "degrees Celsius"},
      {"measurement": "estimated transition temperature", "setting": "thermal denaturation curve, same conditions as Example 3 (292 microM, 20 mM phosphate buffer, 150 mM NaCl, pH 7.2), transition incomplete", "result": "around 97 degrees Celsius"}
    ]}
  ]
}
